Assay results reported in publication PMC4838375.

Assays:
Experiment in all cases: ITC
[1] = target: PHDVC5HCH_(NSD1) tandem domain (murine NSD1, Glu2117–Asp2207), wild type (mouse)
[2] = target: PHDVC5HCH_(NSD1) E2204A (mouse) (UniProt O88491)
[3] = target: PHDVC5HCH_(NSD1) R2152Q (mouse) (UniProt O88491)
[4] = target: PHDVC5HCH_(NSD1) H2205R (mouse) (UniProt O88491)

| Substance | Kd [1] | dH [1] | stoichiometry N [1] | Kd [2] | Kd [3] | dH [3] | Kd [4] |
| --- | --- | --- | --- | --- | --- | --- | --- |
| C2HR_(Nizp1) R417A (peptide) | 36 µM | 1.5 kcal/mol | 1.1 |  |  |  |  |
| C2HR_(Nizp1) synthetic peptide (murine Nizp1, E397-K434), wild type | 3.8 µM | 4.1 kcal/mol | 1.1 | 45.2 µM | 4.9 µM | 3.5 kcal/mol | 27.2 µM |
| C2HR_(Nizp1) R415A (peptide) | 6.1 µM | 2.2 kcal/mol | 1.1 |  |  |  |  |
| C2HR_(Nizp1) R427A (peptide) |  | 1.7 kcal/mol |  |  |  |  |  |
